Source: paper PMC2797447 (Blood cells, molecules & diseases, 2009)

Target: the molecule itself
Assay: cross-linking

B1: mouse Kcc1 K-Cl cotransporter (natural protein, UniProt Q9JIS8 1-1085, looked up)
chain: MPHFTVVPVDGPRRGDYDNLEGLSWVDYGERAEREDSDGQGNHRENSPFLCPLDASRGNDYYDRNLALFEEELDIRPKVSSLLGKLVSYTNLTQGAKEHEEAESGEGGRRRAAKAPSMGTLMGVYLPCLQNIFGVILFLRLTWMVGTAGVLQALLIVLICCCCTLLTAISMSAIATNGVVPAGGSYFMISRSLGPEFGGAVGLCFYLGTTFAAAMYILGAIEILLTYIAPPAAIFYPSGTHDMSSATLNNMRVYGTIFLTLMTLVVFVGVKYVNKFASLFLACVIISILSIYAGGIKSIFDPPVFPVCMLGNRTLSRDQFDICAKTVVVDNETVATRLWTFFCHSPNLTADSCDPYFLLNNVTEIPGIPGAAAGVLQENLWSAYLEKGEVVEKHGLPSTDTLGLKESLSLYVVADIATSFTVLVGIFFPSVTGIMAGSNRSGDLRDAQKSIPVGTILAIVTTSLVYFSSVILFGACIEGVVLRDKYGDGVSRNLVVGTLAWPSPWVIVVGSFFSTCGAGLQSLTGAPRLLQAIAKDNIIPFLRVFGHGKANGEPTWALLLTALIAELGILIASLDMVAPILSMFFLMCYLFVNLACAVQTLLRTPNWRPRFKYYHWTLSFLGMSLCLALMFVSSWYYALVAMLIAGMIYKYIEYQGAEKEWGDGIRGLSLSAARYALLRLEEGPPHTKNWRPQLLVLLKLDEDLHVKYPRLLTFASQLKAGKGLTIVGSVIQGSFLESYGEAQAAEQTIKNMMDIEKVKGFCQVVVASKVREGLAHLIQSCGLGGMRHNSVVLGWPYGWRQSEDPRAWKTFIDTVRCTTAAHLALLVPKNIAFYPSNHERYLDGHIDVWWIVHDGGMLMLLPFLLRQHKVWKKCRMRIFTVAQMDDNSIQMKKDLAIFLYHLRLEAEVEVVEMHNSDISAYTYERTLMMEQRSQMLRQMRLTKTERDREAQLVKDRHSALRLESLYSDEEEESVAGADKIQMTWTRDKYMAEPWDPSHAPDNFRELVHIKPDQSNVRRMHTAVKLNEVIVTRSHDARLVLLNMPGPPKNSEGDENYMEFLEVLTEGLERVLLVRGGGREVITIYS
Question: B1 was tested. Which “stoichiometry N” value did it give?
Answer: The value was roughly 2.
